Data on 2 molecules can be found in patent US20140072980A1 (Regeneron, published 2014).

One experiment concerns the target T1, human Fc homodimer (human, UniProt P01861 120-325 = IgG part).
T1 construct: His 95 and Tyr 96 (IMGT) in CH3; also called Fc/Fc; hFc
Kind of experiment: SPR (Biacore 2000), antibody captured on anti-mouse-Fc surface, Fc dimer injected. The method, then: (§1) Measurements to determine binding affinities and kinetic constants were made on a Biacore 2000 instrument. Antibodies (each of Ab1-Ab8) were captured onto an anti-mouse-Fc sensor surface (Mab capture format), and human Fc (SEQ ID NO 26) homodimers, human Fc* homodimers (SEQ ID NO:42), or Fc/Fc* heterodimers were injected over the surface. Kinetic association (kₐ) and dissociation (kd) rate constants were determined by processing and fitting the data to a 1:1 binding model using Scrubber 2.0 curve fitting software.

Experiment [1] concerns the target IgG1 Fc*/Fc* monospecific antibody. Kind of experiment: flow cytometry sandwich: antibody displayed on CHO cells by CSCP ScFv-FcγR, hFc block, detected with FITC-labeled Ab6; signal needs both capture and detection. As to the method:
(§2) The Ab2-derived anti-Fc-specific ScFv-FcγR surface capture system was tested for its ability to detect and enrich for cells that produce bispecific antibodies. To assess the ability to detect bispecific antibodies, which harbor the 95R/435R-96F/436F substitution in one of the CH3 domains (designated Fc*), various antibodies were expressed in the Ab2-derived anti-Fc-specific ScFv-FcγR surface capture cell line, using hFc as the blocking molecule, and a FITC-labeled Ab6 anti-Fc* antibody (e.g., mAb with HC of SEQ ID NO:40, and LC of SEQ ID NO:41) as the detection molecule. The Ab2-derived anti-Fc-specific ScFv-FcγR surface capture cell line was able to detect and distinguish the bispecific antibody (Fc/Fc*) over any Fc*/Fc* or Fc/Fc monospecific antibodies using the Fc*-specific Ab6 as the detection molecule (Table 4). The wildtype FcγR surface capture cell line was not able to distinguish between the Fc/Fc*, Fc*/Fc*, and Fc/Fc IgG4 species, since FcγR is unable to bind, or binds at very low affinity to IgG4.

For experiment [2], the target named is IgG4 Fc/Fc monospecific antibody. The experiment is described as above. The method, then: as §2
For experiment [3], the target named is IgG4 Fc*/Fc* monospecific antibody. Described as above. As to the method:
as §2

The target of experiment [4] is IgG4 Fc/Fc* bispecific antibody. Described as above. The method, then:
as §2

The target of experiment [5] is IgG1 Fc/Fc* bispecific antibody. The description is as above. The method, then: as §2
Experiment [6] has as its target IgG1 Fc/Fc monospecific antibody. The experiment is described as above. As to the method: as §2
In experiment [7] the target is IgG1 Fc*/Fc* monospecific antibody. As to the kind of experiment: flow cytometry sandwich: antibody displayed on CHO cells by CSCP FcγR, detected with FITC-labeled Ab6; signal needs both capture and detection. (Flow cytometry measures light scatter and fluorescence of single cells or particles in a stream.)
Experiment [8] addresses IgG1 Fc/Fc* bispecific antibody. Described as above.
In experiment [9] the target is IgG1 Fc/Fc monospecific antibody. The description is as above.
The target of the next experiment is T2, human Fc* homodimer (human).
T2 construct: also called Fc*/Fc*; human ΔAdpFc polypeptide
Kind of experiment: SPR (Biacore 2000), antibody captured on anti-mouse-Fc surface, Fc dimer injected, 1:1 fit. The method, then: as §1
(In general: Surface plasmon resonance follows binding to a sensor surface in real time, without labels.)

Experiment [10] deals with IgG1 Fc*/Fc* monospecific antibody. As to the kind of experiment: flow cytometry sandwich: antibody displayed on CHO cells by CSCP ScFv*-FcγR, hFc block, detected with Alexa 488-labeled Ab2; signal needs both capture and detection. The method, then: (§3) Conversely, the Ab6-derived anti-Fc*-specific ScFv*-FcγR surface capture system was tested for its ability to detect and enrich for cells that produce bispecific antibodies. […] The Ab6-derived anti-Fc*-specific ScFv*-FcγR surface capture cell line was able to detect and distinguish the bispecific antibody (Fc/Fc*) over the Fc*/Fc* or Fc/Fc monospecific antibodies using the Fc-specific Ab2 as the detection molecule (Table 4). The FcγR surface capture cell line was not able to distinguish between the Fc/Fc*, Fc*/Fc*, and Fc/Fc IgG4 species.

Experiment [11] deals with IgG1 Fc/Fc* bispecific antibody. Described as above. As to the method: as §3
Experiment [12] deals with IgG1 Fc/Fc monospecific antibody. The experiment is described as above. The method, then: as §3
For experiment [13], the target named is IgG4 Fc/Fc monospecific antibody. Kind of experiment: flow cytometry sandwich: antibody displayed on CHO cells by CSCP FcγR, detected with labeled Ab2; signal needs both capture and detection.
Experiment [14] addresses IgG4 Fc*/Fc* monospecific antibody. The description is as above.
Experiment [15] addresses IgG4 Fc/Fc* bispecific antibody. Described as above.
The target of experiment [16] is IgG1 Fc/Fc* bispecific antibody. Described as above.
For experiment [17], the target named is IgG1 Fc/Fc monospecific antibody. Described as above.

T1 sequence (P01861 other isoform, or with tags, fused parts or gaps limits assumed): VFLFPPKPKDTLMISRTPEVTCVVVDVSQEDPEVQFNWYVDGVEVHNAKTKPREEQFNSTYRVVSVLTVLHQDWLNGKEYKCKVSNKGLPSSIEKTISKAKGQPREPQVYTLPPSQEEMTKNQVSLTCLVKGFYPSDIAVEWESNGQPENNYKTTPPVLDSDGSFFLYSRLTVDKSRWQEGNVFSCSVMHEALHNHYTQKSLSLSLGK

B1: Ab6 (antibody, mouse IgG2a, kappa, V domains shown)
VH: EVQLVESGGAIVKPGGSHRVSCEASGFTFSNAWMSWVRQAPGRGLEWVGRILSKTDGGTTDYAAPVKDRFTISRDDSKNMLFLQMDSLKIEDTAVYFCTTADFWSAYSSDYWGQGTLVTVSS
VL: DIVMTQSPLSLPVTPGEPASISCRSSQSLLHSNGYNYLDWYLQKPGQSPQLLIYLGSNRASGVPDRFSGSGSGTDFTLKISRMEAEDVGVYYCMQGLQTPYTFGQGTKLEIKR
notes: also called Fc*-specific Ab6; Ab6 anti-Fc* antibody
On to B1, for which, in the experiment with human Fc homodimer, the binding result is “no binding”. Moreover, the “Mean Fluorescence Intensity (MFI)” value in experiment [1] amounted to 15 MFI; in [2], 15 MFI; in [3], 15 MFI; in experiment [4], 500 MFI; in experiment [5], 500 MFI; in experiment [6], 15 MFI. Besides, the “Mean Fluorescence Intensity (MFI)” value in experiment [7], in experiment [8] and in [9] was 200 MFI throughout. Also, binding in the experiment with human Fc* homodimer was put at a Kd of 0.679 nM. This molecule also displayed an off-rate (koff) in the experiment with human Fc* homodimer of 0.000593 s⁻¹. In addition, the kon in the experiment with human Fc* homodimer was 873000 M⁻¹ s⁻¹. Besides, the t½ with human Fc* homodimer is 19 min.

B2: Ab2 (antibody, V domains shown)
VH: QLQQSGAELAKPGASVKMSCKASGYTFTNYWIHWEKQRPEQGLEWIGYINPNTGHTEYNQKFKDKATLTADRSSSTAYMQLSSLTSEDSAVYFCARTYSGSSHFDYWGQGTTL
VL: DIVMTQTPVSLPVSLGDQASISCRSSQSLVHNNGDTFLHWYLQKPGQSPKLLIYKVSNRFSGVPDRFSGSGSGTDFTLKISRVEAEDLGVYFCSQTTLIPRTFGGGTKLEI
notes: From Velocimmune mice, captured by anti-mouse-Fc in SPR; also called Fc-specific Ab2; Ab2 anti-Fc antibody
In the case of B2, the “Mean Fluorescence Intensity (MFI)” value worked out at 10 MFI in [10]; 150 MFI in experiment [11]; 10 MFI in experiment [12]; 200 MFI in [13]; 200 MFI in [14]; 200 MFI in [15]. The “Mean Fluorescence Intensity (MFI)” value is 500 MFI in [16] and 350 MFI in experiment [17].

Broadly, the Kd is a measure of binding affinity in units of concentration. A low value points to higher affinity. What is called koff is the first-order rate constant of dissociation. Read a low koff as slow dissociation. Usually kon stands for the rate constant with which the complex forms. Low readings indicate slower complex formation, high ones faster complex formation. A word on the t½: it is the time in which the quantity being followed falls by half. Read a low t½ as fast loss.
